Patent US20110165265A1, “TRAIL VARIANTS FOR TREATING CANCER” (FUNDACIÓ GENÒMICA (CRG), priority 2007, published 2011)
“Also recorded” adds a separate entry of the source.

T1: DcR2 (Homo sapiens, UniProt Q9UBN6)
T1 construct: soluble, recombinant DcR1-Ig (sDcR1) and DcR2-Ig (sDcR2); purchased R&D Systems
T1 sequence (Q9UBN6 56-211 limits assumed): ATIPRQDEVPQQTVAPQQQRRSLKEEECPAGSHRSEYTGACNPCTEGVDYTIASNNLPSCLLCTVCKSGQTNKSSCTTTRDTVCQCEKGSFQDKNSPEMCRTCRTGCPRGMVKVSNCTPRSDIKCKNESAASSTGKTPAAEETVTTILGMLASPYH

B1: D269HE195R: rhTRAIL (114-281) carrying mutations D269H and E195R; DR5-selective TRAIL variant (protein)
chain: MVRERGPQRVAAHITGTRGRSNTLSSPNSKNEKALGRKINSWESSRSGHSFLSNLHLRNGELVIHEKGFYYIYSQTYFRFQERIKENTKNDKQMVQYIYKYTSYPDPILLMKSARNSCWSKDAEYGLYSIYQGGIFELKENDRIFVSVTNEHLIDMHHEASFFGAFLVG
B2: wtTRAIL: wild-type soluble recombinant human TRAIL, amino acids 114-281 (SEQ ID NO: 3) (protein, listed as Homo sapiens)
chain: MVRRGRVAAHTGTRGRSNTSSNSKNKAGRKNSWSSRSGHSSNHRNGVHKGYYYSTYRKNTKNDKMVYYKYTSYDMKSARNSCWSKDAYGYSYGGKNDRVSVTNHDMDHASGAVG
modifications: TRAIL 114-281

How the values were obtained:
HeLa xenografts = HeLa xenografts in athymic nude mice; type: in vivo; conditions: start at +/−150 mm3
Source text: Xenografts of the HeLa cervical cancer cell line were established with matrigel in athymic nude mice. Treatment was started when tumor volume was +/−150 mm3.

DcR2 = target: T1, DcR2; conditions: cited from earlier work
Caski cells = assay: Cell survival / sensitivity of Caski; type: cell-based
A2780-Luc xenografts = assay: IP A2780-Luc xenografts, bioluminescence imaging; conditions: for mean signal reduction as to vehicle treated mice: day 16, IP treatment; for light emission (bioluminescent signal): day 16, mean±SEM; for median survival: surrogate endpoint signal ≧3.1×10^8
Experimental: Visualization of response to TRAIL, TRAIL-DR5, cisplatin and to the combination of either ligand with cisplatin by means of bioluminescence imaging. Nude mice were inoculated IP with 2×10^6 A2780-Luc cells. After 5 days treatment was initiated; cisplatin (4 mg/kg IP) or vehicle at day 5 and 12, TRAIL, TRAIL-DR5 (5 mg/kg IP) or vehicle at day 5-10 and 12-16, or a combination of TRAIL or TRAIL-DR5 with cisplatin.
Female nude mice (Hsd:Athymic Nude-nu) were obtained from Harlan Nederland (Horst, The Netherlands) at 6-8 weeks of age (˜21 g). Inoculation was performed after 10 days of acclimatization.
Imaging was conducted with the IVIS 100 series (Xenogen Corporation Alameda, Calif.), composed of a cooled charge-coupled device camera connected to a light tight black chamber. Before in vivo imaging animals were anesthetized with 4% isoflurane and injected IP with D-luciferin (150 mg/kg, Xenogen) reconstituted in sterile PBS. Mice were placed in prone position on a warmed stage (37° C.) in the imaging chamber, and grayscale reference images were obtained under dim illumination. Pseudocolor images representing bioluminescent intensity were acquired with Livinglmage software (version 2.50, Xenogen) 10 and 15 min after D-luciferin injection in complete darkness. These images were superimposed on the grayscale images for analysis with Igor Pro software (version 4.09, WaveMetrics, Lake Oswego, Oreg.). All bioluminescence imaging (BLI) data are depicted in radiance units (photons/sec/cm^2/sr) enabling absolute comparisons between bioluminescent images and represent final data obtained after subtraction of the background signal.

Colo205 cells [1] = assay: Cell survival / sensitivity of Colo205; type: cell-based
Experimental: (B) Effect of increasing concentrations of Aspirin on cell viability. (C) Effect of increasing concentrations of 5-Flurouracil on cell viability. (D) Combination therapy with 5 mM Aspirin pre-incubated for 24 h lead to further decreases in cell viability in cells treated with both TRAIL and two of the DR5 mutants. (E) 30 minute incubation of DR5 mutants, were sufficient decrease cell viability which was further augmented when cells were pre-incubated for 24 h with Aspirin. The shorter incubation period lead to a decrease potency of TRAIL alone or in combination with Aspirin. […] (G) 30 min incubation of the DR5 mutant was sufficient to decrease cell viability which was not enhanced by 5-Flurouracil, and once again the decease potency of TRAIL is seen. Proteins are indicated as follows: TRAIL stands for rhTRAIL WT; D269H stands for rhTRAIL carrying mutation D269H; E195R stands for rhTRAIL carrying mutations D269H and E195R; and M1 stands for rhTRAIL carrying mutations D269H, E194I and I196S.
TRAIL-induced cell death as a function of concentration was measured with the MTS assay.

Human dermal fibroblasts = assay: MTT viability of human dermal fibroblasts; type: cell-based; conditions: 50-500 ng/ml, 24 h
Experimental: Human dermal fibroblasts were grown in low glucose DMEM (Sigma) supplemented with 10% fetal calf serum, 50 U/ml penicillin and […] streptomycin; human umbilical vein endothelial cells (HUVEC, PromoCell) were cultured in Endothelial Cell Growth Medium with SupplementMix (PromoCell). Fibroblasts and HUVEC cells were seeded at 1.3×10^5 cells/ml 24 h before treatment with increasing concentrations of TRAIL and DR5-selective variants, D269H and D269HE195R (50-500 ng/ml) for 24 h and cell viability was measured using MTT assay, wherein 200 μg/ml MTT (3-(4,5-dimethylthiazo1-2-yl)-2,5-diphenyl-tetrazolium bromide) was added to control and treated cells and incubated for 3 h at 37° C. The reaction was stopped and the purple formazan precipitate formed was dissolved using dimethyl sulfoxide (DMSO) and the colour intensity was measured at 550 nm on a Wallac multilabel counter. The control value corresponding to untreated cells was taken as 100% and the viability of treated samples was expressed as a percentage of the control. (FIG. 15).

Colo205 cells [2] = assay: Colo205 apoptosis after neutralizing antibodies to DcR1 and DcR2; type: cell-based, human; conditions: for dose that induced approximately 50% cell death: Annexin V
Experimental: All graphs are representatives of two independent repeats. […] Induction of apoptosis was measured 3 h post-treatment using Annexin V assay. […] The graphs show the average±SEM of three independent experiments.
Apoptotic cell death was measured 3 h post-treatment using staining Annexin V assay (FIG. 15), as described above. Increase in apoptosis was expressed as fold increase compared to the level of apoptosis caused by the ligands alone, in the absence of the neutralizing antibodies.

Colo205 cells [3] = assay: Annexin V apoptosis in Colo205 after PI3K inhibition; type: cell-based, human; conditions: 20 μM LY294002 15-18 hours, ligand 0.1 μg/ml 3 h
Experimental: Modulation of TRAIL and D269H/E195R induced apoptosis by PI3K inhibition in Colo205, as assessed by Annexin V assay. Cells were pre-incubated for 15-18 hours with 20 μM LY294002, then either left untreated or exposed to rhTRAIL (0.1 μg/ml) or D269H/E195R (0.1 μg/ml) for 3 additional hours before harvest.

SiHa cells = assay: Cell survival / sensitivity of SiHa; type: cell-based
Source text: (A) Effect of increasing concentration of Bortezomib on cell survival. […] (C) 10Gy Radiotherapy had no effect in further decreasing cell viability of SIHA cells in both TRAIL and DR5 mutant treated cells.

HeLa cells = assay: Cell survival / sensitivity of HeLa; type: cell-based
Experimental: (B) Effect of increasing of Bortezomib on cell viability. Hela cells appear to tolerate higher concentration of Bortezomib compared to Caski and SIHA cells (C) Combination therapy with 10 nM Bortezomib incubated for 24 h lead to further decreases in cell viability in cells treated with both TRAIL and two of the DR5 mutants (D) Radiation therapy in combination with TRAIL or the DR5 mutants further decrease cell viability in HELA cells. The DR5 mutant show decrease cell viability at lower concentration of ligand compared to TRAIL.

ML-1 cells = assay: Cytotoxicity in ML-1 cells; type: cell-based
Experimental: Colo205 and ML-1 cells were then treated with increasing concentrations of TRAIL or the DR5-specific variants D269H, D269HE195R, and D269H/T214R, and their cytotoxic potential was measured with a 3-(4,5-dimethylthiazol-2-yl)-2,5-diphenyl tetrazolium bromide (MTT) assay.

| Molecule | effect on xenografts (HeLa xenografts) | cell viability, single agent (Caski cells) | effect of combination with bortezomib (Caski cells) | mean signal reduction as to vehicle treated mice (A2780-Luc xenografts) | light emission (bioluminescent signal) (A2780-Luc xenografts) | median survival (A2780-Luc xenografts) | effect of 5-FU and Aspirin on induced apoptosis (Colo205 cells [1]; Colo205) | cell viability (Human dermal fibroblasts) | apoptosis rate enhancement with neutralizing antibodies to both DcR1 and DcR2 (Colo205 cells [2]; Colo205) | fold increase in apoptosis with DcR1 neutralising antibody (Colo205 cells [2]; Colo205, 3 h) | dose that induced approximately 50% cell death (Colo205 cells [2]; Colo205, 3 h) | change of sensitivity after PI3K inhibition (Colo205 cells [3]) | effect of combination with bortezomib (SiHa cells) | sensitivity, single agent (SiHa cells) | cell viability, single agent (HeLa cells) | effect of radiotherapy and Bortezomib on induced apoptosis (HeLa cells) | cell death induction (ML-1 cells) | other results |
| --- | --- | --- | --- | --- | --- | --- | --- | --- | --- | --- | --- | --- | --- | --- | --- | --- | --- | --- |
| B1 | No effect was observed | comparable | increased tumor cell death | 68.3% | 1.4×10^8±1.3×10^7 radiance units | 21 days | enhanced apoptosis | did not result in a decrease in cell viability | not affected | no increase in apoptosis | ~4 ng/mL | enhanced | increased tumor cell death | resistant | comparable | enhanced apoptosis | only TRAIL was able to induce cell death; also recorded: hardly any apoptosis | affinity for DcR2 (DcR2; earlier work referred to): reduced; cell viability, single agent (Colo205 cells [1]; Colo205): significantly less cell viability than TRAIL; sensitivity, single agent comparison (Colo205 cells [1]; Colo205): higher sensitivity; efficient concentration compared to wtTRAIL (Colo205 cells [1]; Colo205, MTS dose-response): efficient at a several fold lower concentration than needed for wtTRAIL; fold increase in apoptosis with DcR2 neutralising antibody (Colo205 cells [2]; Colo205, 3 h): no increase of apoptosis; also recorded: no increase in apoptosis; fold increase in apoptosis with neutralizing antibodies to both DcR1 and DcR2 (Colo205 cells [2]; Colo205, 3 h): not and not affected |
| B2 | No effect was observed | comparable | increased tumor cell death | 48.8% | 2.3×10^8±3.1×10^7 radiance units | 21 days | enhanced apoptosis | Neither wtTRAIL nor the DR5-selective variants had any effect; also recorded: did not result in a decrease in cell viability | 1.5±0.1 fold | 1.5 fold | ~20 ng/mL | slightly decreased | increased tumor cell death | resistant | comparable | enhanced apoptosis | able to induce cell death | Kd (DcR2; surface plasmon resonance, read-out: binding affinity Kd for DcR2): ~8 nM; reduction of apoptosis-inducing potential in the presence of the decoy receptors (Colo205 cells [2]; Colo205): approximately 40% |
